Source: the supplement of paper PMC5998384

Columns and labels:
[1] = tested on: HeLa Kyoto; assay: solubility in G1/S (NP-40 vs SDS abundance) (log2 ratio); higher = more soluble; conditions: cell cycle stage: G1/S
[2] = tested on: HeLa Kyoto; assay: melting temperature (median over replicates), in situ; higher = more thermally stable
[3] = tested on: HeLa Kyoto; assay: thermal stability score vs G1/S (z-score of summed log2 fold changes over temperatures); higher = more thermally stable than in G1/S
[4] = tested on: HeLa Kyoto; assay: solubility change mitosis vs G1/S (difference of NP-40 vs SDS log2 ratios) (log2 ratio difference); higher = more soluble in mitosis
[5] = cell cycle stage: early G1 (4.5 h after nocodazole release)
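For melting temperature (median over replicates), in situ in this document: HeLa Kyoto cells synchronized by double thymidine or nocodazole block, proteins quantified by TMT10plex mass spectrometry, three independent biological replicates.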
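For solubility change mitosis vs G1/S (difference of NP-40 vs SDS log2 ratios) in this document: synchronized HeLa Kyoto cells (double thymidine block for G1/S, nocodazole release for mitosis), protein amounts in NP-40 versus SDS lysates quantified by mass spectrometry, three biological replicates.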
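For solubility in G1/S (NP-40 vs SDS abundance) in this document: HeLa Kyoto cells arrested at G1/S by double thymidine block, proteins quantified by TMT10plex mass spectrometry in mild NP-40 versus SDS extracts, three biological replicates.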
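For thermal stability score vs G1/S (z-score of summed log2 fold changes over temperatures) in this document: synchronized HeLa Kyoto cells, proteins quantified by TMT10plex mass spectrometry, three biological replicates, mitosis taken 0.5 h after nocodazole release, G1/S directly after double thymidine block.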

| Sequence | solubility in G1/S (log2) [1] | melting temperature ([2]; cell cycle stage: G1/S) [°C] | melting temperature ([2]; cell cycle stage: mitosis) [°C] | thermal stability score [3, 5] | thermal stability score ([3]; cell cycle stage: mitosis) | solubility change mitosis (log2) [4] |
| --- | --- | --- | --- | --- | --- | --- |
| MTVSGPGTPEPRPATPGASSVEQLRKEGNELFKCGDYGGALAAYTQALGLDATPQDQAVLHRNRAACHLKLEDYDKAETEASKAIEKDGGDVKALYRRSQALEKLGRLDQAVLDLQRCVSLEPKNKVFQEALRNIGGQIQEKVRYMSSTDAKVEQMFQILLDPEEKGTEKKQKASQNLVVLAREDAGAEKIFRSNGVQLLQRLLDMGETDLMLAALRTLVGICSEHQSRTVATLSILGTRRVVSILGVESQAVSLAACHLLQVMFDALKEGVKKGFRGKEGAIIVDPARELKVLISNLLDLLTEVGVSGQGRDNALTLLIKAVPRKSLKDPNNSLTLWVIDQGLKKILEVGGSLQDPPGELAVTANSRMSASILLSKLFDDLKCDAERENFHRLCENYIKSWFEGQGLAGKLRAIQTVSCLLQGPCDAGNRALELSGVMESVIALCASEQEEEQLVAVEALIHAAGKAKRASFITANGVSLLKDLYKCSEKDSIRIRALVGLCKLGSAGGTDFSMKQFAEGSTLKLAKQCRKWLCNDQIDAGTRRWAVEGLAYLTFDADVKEEFVEDAAALKALFQLSRLEERSVLFAVASALVNCTNSYDYEEPDPKMVELAKYAKQHVPEQHPKDKPSFVRARVKKLLAAGVVSAMVCMVKTESPVLTSSCRELLSRVFLALVEEVEDRGTVVAQGGGRALIPLALEGTDVGQTKAAQALAKLTITSNPEMTFPGERIYEVVRPLVSLLHLNCSGLQNFEALMALTNLAGISERLRQKILKEKAVPMIEGYMFEEHEMIRRAATECMCNLAMSKEVQDLFEAQGNDRLKLLVLYSGEDDELLQRAAAGGLAMLTSMRPTLCSRIPQVTTHWLEILQALLLSSNQELQHRGAVVVLNMVEASREIASTLMESEMMEILSVLAKGDHSPVTRAAAACLDKAVEYGLIQPNQDGE [UNC45A] | 0.2 | 48.6 | 48.8 | 0.271 | 1.37 | -0.111 |
| MAAAGLVAVAAAAEYSGTVASGGNLPGVHCGPSSGAGPGFGPGSWSRSLDRALEEAAVTGVLSLSGRKLREFPRGAANHDLTDTTRADLSRNRLSEIPIEACHFVSLENLNLYQNCIRYIPEAILNLQALTFLNISRNQLSTLPVHLCNLPLKVLIASNNKLVSLPEEIGHLRHLMELDVSCNEIQTIPSQIGNLEALRDLNVRRNHLVHLPEELAELPLIRLDFSCNKITTIPVCYRNLRHLQTITLDNNPLQSPPAQICIKGKVHIFKYLNIQACKIAPDLPDYDRRPLGFGSCHEELYSSRPYGALDSGFNSVDSGDKRWSGNEPTDEFSDLPLRVAEITKEQRLRRESQYQENRGSLVVTNGGVEHDLDQIDYIDSCTAEEEEAEVRQPKGPDPDSLSSQFMAYIEQRRISHEGSPVKPVAIREFQKTEDMRRYLHQNRVPAEPSSLLSLSASHNQLSHTDLELHQRREQLVERTRREAQLAALQYEEEKIRTKQIQRDAVLDFVKQKASQSPQKQHPLLDGVDGECPFPSRRSQHTDDSALCMSLSGLNQVGCAATLPHSSAFTPLKSDDRPNALLSSPATETVHHSPAYSFPAAIQRNQPQRPESFLFRAGVRAETNKGHASPLPPSAAPTTDSTDSITGQNSRQREEELELIDQLRKHIEYRLKVSLPCDLGAALTDGVVLCHLANHVRPRSVPSIHVPSPAVPKLTMAKCRRNVENFLEACRKIGVPQEQLCLPLHILEEKGLSQVAVTVQALLELAPPKQQQHQLSAV [LRCH3] | 0.108 | 46.9 | 48.8 | 0.000114 | 1.36 | -0.0597 |
| MGAPLLSPGWGAGAAGRRWWMLLAPLLPALLLVRPAGALVEGLYCGTRDCYEVLGVSRSAGKAEIARAYRQLARRYHPDRYRPQPGDEGPGRTPQSAEEAFLLVATAYETLKDEETRKDYDYMLDHPEEYYSHYYHYYSRRLAPKVDVRVVILVSVCAISVFQFFSWWNSYNKAISYLATVPKYRIQATEIAKQQGLLKKAKEKGKNKKSKEEIRDEEENIIKNIIKSKIDIKGGYQKPQICDLLLFQIILAPFHLCSYIVWYCRWIYNFNIKGKEYGEEERLYIIRKSMKMSKSQFDSLEDHQKETFLKRELWIKENYEVYKQEQEEELKKKLANDPRWKRYRRWMKNEGPGRLTFVDD [DNAJC25] | -0.101 | 50.5 | 50.2 | 0.0789 | -0.224 | 0.00727 |
| MESSSSSNSYFSVGPTSPSAVVLLYSKELKKWDEFEDILEERRHVSDLKFAMKCYTPLVYKGITPCKPIDIKCSVLNSEEIHYVIKQLSKESLQSVDVLREEVSEILDEMSHKLRLGAIRFCAFTLSKVFKQIFSKVCVNEEGIQKLQRAIQEHPVVLLPSHRSYIDFLMLSFLLYNYDLPVPVIAAGMDFLGMKMVGELLRMSGAFFMRRTFGGNKLYWAVFSEYVKTMLRNGYAPVEFFLEGTRSRSAKTLTPKFGLLNIVMEPFFKREVFDTYLVPISISYDKILEETLYVYELLGVPKPKESTTGLLKARKILSENFGSIHVYFGDPVSLRSLAAGRMSRSSYNLVPRYIPQKQSEDMHAFVTEVAYKMELLQIENMVLSPWTLIVAVLLQNRPSMDFDALVEKTLWLKGLTQAFGGFLIWPDNKPAEEVVPASILLHSNIASLVKDQVILKVDSGDSEVVDGLMLQHITLLMCSAYRNQLLNIFVRPSLVAVALQMTPGFRKEDVYSCFRFLRDVFADEFIFLPGNTLKDFEEGCYLLCKSEAIQVTTKDILVTEKGNTVLEFLVGLFKPFVESYQIICKYLLSEEEDHFSEEQYLAAVRKFTSQLLDQGTSQCYDVLSSDVQKNALAACVRLGVVEKKKINNNCIFNVNEPATTKLEEMLGCKTPIGKPATAKL [GNPAT] | -0.227 | 53.4 | 53.7 | -0.31 | -0.298 | -0.163 |
